Assay results: patent US20130251724A1 (GlaxoSmithKline, published 2013)
Changes are numbered by the printed parent chain. Names may count otherwise. “And” between values parts separate entries of the source, which are not always exact repeats. Equal entries are not always repeated.

T1: Human OSM (human, UniProt P13725 26-221)
T1 construct: Recombinant human OSM; also called hOSM; human Oncostatin M
T1 sequence: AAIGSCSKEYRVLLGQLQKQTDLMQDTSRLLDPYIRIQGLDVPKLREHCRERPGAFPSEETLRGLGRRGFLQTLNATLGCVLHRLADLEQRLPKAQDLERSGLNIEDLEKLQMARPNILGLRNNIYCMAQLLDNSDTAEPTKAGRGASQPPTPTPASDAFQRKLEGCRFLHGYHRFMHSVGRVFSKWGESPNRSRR

T2: Cynomolgus OSM (cynomolgus, UniProt A0A2K5VPC6 26-221)
T2 construct: also called Cyno OSM; cynomolgus macaque OSM
T2 sequence: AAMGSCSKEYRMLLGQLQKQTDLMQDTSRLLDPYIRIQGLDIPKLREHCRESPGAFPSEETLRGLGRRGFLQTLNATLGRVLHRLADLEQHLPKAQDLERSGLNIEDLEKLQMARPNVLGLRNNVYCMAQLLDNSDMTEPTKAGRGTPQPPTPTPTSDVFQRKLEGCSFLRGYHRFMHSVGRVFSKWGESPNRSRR

B1: Humanised 10G8 H1L1 (antibody, V domains shown)
VH: EMQLVESGGGLVQPGGSLRLSCAASGFTFSNYAMSWVRQAPGKGLEWVATISDGGSFTYYLDNVRGRFTISRDNAKNSLYLQMNSLRAEDTAVYYCARDVGHTTFWYFDVWGRGTLVTVSS
VL: DIVMTQSPDSLAVSLGERATINCRASKSVSAAGYNFMHWYQQKPGQPPKVLIYYASNLESGVPDRFSGSGSGTDFTLTISSLQAEDVAVYYCLHSREFPFTFGGGTKVEIK
B2: Humanised 10G8 H0L4 (antibody, V domains shown)
VH: B1 VH with M2V
VL: B1 VL with A88V, K107N
B3: Humanised 10G8 H2L1 (antibody, V domains shown)
VH: B1 VH with M2V, R113S
VL: B1 VL
B4: Humanised 10G8 H1L4 (antibody, V domains shown)
VH: B1 VH
VL: B1 VL with A88V, K107N
B5: Humanised 10G8 H2L4 (antibody, V domains shown)
VH: B1 VH with M2V, R113S
VL: B1 VL with A88V, K107N
B6: Pos 100B Gln (antibody, V domains shown)
VH: B1 VH with M2V, N31S, W106Q
VL: DIVMTQSPDSLAVSLGERATINCRASKSVSAAGYNFMHWYQQKPGQPPKVLIYYASNLESGVPDRFSGSGSGTDFTLTISSLQAEDVAVYYCLHSREFPFTFGGGTKVEIKR
notes: also called CDRH3 W100B>Q
B7: Pos 100C Gln (antibody, V domains shown)
VH: B1 VH with M2V, N31S, Y107Q
VL: B6 VL
notes: also called CDRH3 Y100C>Q
B8: Pos 100C Leu (antibody, V domains shown)
VH: B1 VH with M2V, N31S, Y107L
VL: B6 VL
notes: also called CDRH3 Y100C>L
B9: Pos 100 Ala (antibody, V domains shown)
VH: B1 VH with M2V, N31S, T104A
VL: B6 VL
notes: also called CDRH3 T100>A
B10: Pos 100A His (antibody, V domains shown)
VH: B1 VH with M2V, N31S, F105H
VL: B6 VL
notes: also called CDRH3 F100A>H
B11: Pos 100A Met (antibody, V domains shown)
VH: B1 VH with M2V, N31S, F105M
VL: B6 VL
notes: also called CDRH3 F100A>M
B12: Pos 101 Gln (antibody, V domains shown)
VH: B1 VH with M2V, N31S, D109Q
VL: B6 VL
notes: also called CDRH3 D101>Q
B13: Pos 100A Gln (antibody, V domains shown)
VH: B1 VH with M2V, N31S, F105Q
VL: B6 VL
notes: also called CDRH3 F100A>Q
B14: Pos 101 Ala (antibody, V domains shown)
VH: B1 VH with M2V, N31S, D109A
VL: B6 VL
notes: also called CDRH3 D101>A
B15: Pos 96 Thr (antibody, V domains shown)
VH: B1 VH with M2V, N31S, V100T
VL: B6 VL
notes: also called CDRH3 V96>T
B16: Pos 100D Trp (antibody, V domains shown)
VH: B1 VH with M2V, N31S, F108W
VL: B6 VL
notes: also called CDRH3 F100D>W
B17: Pos 96 Trp (antibody, V domains shown)
VH: B1 VH with M2V, N31S, V100W
VL: B6 VL
notes: also called CDRH3 V96>W
B18: Pos 100C Trp (antibody, V domains shown)
VH: B1 VH with M2V, N31S, Y107W
VL: B6 VL
notes: also called CDRH3 Y100C>W
B19: Pos 100C Val (antibody, V domains shown)
VH: B1 VH with M2V, N31S, Y107V
VL: B6 VL
notes: also called CDRH3 Y100C>V
B20: Pos 101 Val (antibody, V domains shown)
VH: B1 VH with M2V, N31S, D109V
VL: B6 VL
notes: also called CDRH3 D101>V
B21: Pos 100D Val (antibody, V domains shown)
VH: B1 VH with M2V, N31S, F108V
VL: B6 VL
notes: also called CDRH3 F100D>V
B22: Pos 102 Ser (antibody, V domains shown)
VH: B1 VH with M2V, N31S, V110S
VL: B6 VL
notes: also called CDRH3 V102>S
B23: Pos 98 Trp (antibody, V domains shown)
VH: B1 VH with M2V, N31S, H102W
VL: B6 VL
notes: also called CDRH3 H98>W
B24: Pos 99 Met (antibody, V domains shown)
VH: B1 VH with M2V, N31S, T103M
VL: B6 VL
notes: also called CDRH3 T99>M
B25: Pos 100B His (antibody, V domains shown)
VH: B1 VH with M2V, N31S, W106H
VL: B6 VL
notes: also called CDRH3 W100B>H
B26: Pos 99 His (antibody, V domains shown)
VH: B1 VH with M2V, N31S, T103H
VL: B6 VL
notes: also called CDRH3 T99>H
B27: Pos 98 Met (antibody, V domains shown)
VH: B1 VH with M2V, N31S, H102M
VL: B6 VL
notes: also called CDRH3 H98>M

These binders were tested against T1, Human OSM (assay: BIAcore kinetics, purified antibody).

| Binder | Kd | koff | kon |
| --- | --- | --- | --- |
| B1 | 0.443 nM | 0.000166 s⁻¹ | 375000 M⁻¹ s⁻¹ |
| B2 | 0.374 nM | 0.00014 s⁻¹ | 374000 M⁻¹ s⁻¹ |
| B3 | 0.365 nM | 0.00014 s⁻¹ | 383000 M⁻¹ s⁻¹ |
| B4 | 0.37 nM | 0.000135 s⁻¹ | 365000 M⁻¹ s⁻¹ |
| B5 | 0.356 nM | 0.000135 s⁻¹ | 380000 M⁻¹ s⁻¹ |

What follows are binders tested against T2, Cynomolgus OSM (assay: BIAcore kinetics, purified antibody).

| Binder | Kd | koff | kon |
| --- | --- | --- | --- |
| B1 | 0.258 nM | 0.00011 s⁻¹ | 428000 M⁻¹ s⁻¹ |
| B2 | 0.242 nM | 0.000101 s⁻¹ | 418000 M⁻¹ s⁻¹ |
| B3 | 0.299 nM | 0.000124 s⁻¹ | 414000 M⁻¹ s⁻¹ |
| B4 | 0.264 nM | 0.000111 s⁻¹ | 421000 M⁻¹ s⁻¹ |
| B5 | 0.205 nM | 9.01e-05 s⁻¹ | 441000 M⁻¹ s⁻¹ |

Each binder was assayed against T1, Human OSM (assay: BIAcore kinetics, transfection supernatant).

| Binder | Kd | koff | kon |
| --- | --- | --- | --- |
| B1 | 0.25 nM | 9.99e-05 s⁻¹ | 400000 M⁻¹ s⁻¹ |
| B2 | 0.268 nM | 0.000111 s⁻¹ | 413000 M⁻¹ s⁻¹ |
| B3 | 0.286 nM | 0.000113 s⁻¹ | 394000 M⁻¹ s⁻¹ |
| B4 | 0.344 nM | 0.00013 s⁻¹ | 377000 M⁻¹ s⁻¹ |
| B5 | 0.226 nM | 0.000101 s⁻¹ | 448000 M⁻¹ s⁻¹ |

These binders were tested against T1, Human OSM (assay: SPR (ProteOn XPR36 or Biacore T100), captured supernatant, OSM as analyte; grey cell: 3x decrease in binding).
Experimental: (§1) The initial kinetic analyses for the CDRH3 screen were carried out on the ProteOn XPR36 (Biorad Laboratories) and certain supernatants were selected for more accurate kinetic analysis on the BiaCore T100.
(§2) For the ProteOn analysis, anti-human IgG (GE Healthcare/Biacore BR-1008-39) was coupled to a GLM chip (Biorad Laboratories 176-5012) by primary amine coupling. The CDRH3 variants were captured directly on to this surface and recombinant human OSM was passed over the captured antibody surface at 256, 64, 16, 4 and 1 nM, with a buffer injection alone (i.e. 0 nM) used to double reference the binding curves. Following the OSM binding event, the capture surfaces were regenerated: with 3M MgCl₂ the regeneration removed the previously captured antibody ready for another cycle of capture and binding analysis. The data was then fitted to the 1:1 model (with mass transport) inherent to the ProteOn analysis software. The run was carried out using HBS-EP (Biacore/GE-Healthcare BR-1006-69) and the analysis temperature was 25° C.
(§3) A similar method was used for analysis of constructs using the Biacore T100, anti-human IgG (GE Healthcare/Biacore BR-1008-39) was coupled to a CM5 chip (GE Healthcare/Biacore BR-1006-68) by primary amine coupling, antibodies were captured on this surface and recombinant human OSM was passed over the captured antibody surface at 256, 64, 16, 4 and 1 nM, with a buffer injection alone (i.e. 0 nM) used to double reference the binding curves. Regeneration was by using pulses of 3M 3M MgCl₂ or 100 mM phosphoric acid or using both reagents. The data was fitted to the 1:1 model inherent to the Biacore T100 analysis software. The run was carried out using HBS-EP (Biacore/GE-Healthcare BR-1006-69) and the analysis temperature was 25° C.

| Binder | Kd |
| --- | --- |
| B6 | 3.35 nM |
| B7 | 1.17 nM |
| B8 | 0.424 nM |
| B9 | 8.55 nM |
| B10 | 39.7 nM |
| B11 | 5.19 nM |
| B12 | 1.1 nM |
| B13 | 14.6 nM |
| B14 | 1.55 nM |

These binders were tested against T1, Human OSM (assay: SPR (ProteOn XPR36 or Biacore T100), captured supernatant, OSM as analyte [continued]).
Experimental: as §1, §2, §3

| Binder | Kd |
| --- | --- |
| B15 | 0.497 nM |
| B16 | 0.711 nM |
| B17 | 0.979 nM |
| B18 | 0.687 nM |
| B19 | 0.56 nM |
| B20 | 0.44 nM |
| B21 | 0.675 nM |
| B22 | 0.444 nM |
| B23 | 0.317 nM |

Each binder was assayed against T1, Human OSM (assay: cell-based or functional assay).

| Binder | KB cell neutralisation assay, mean IC50 |
| --- | --- |
| B1 | 0.013 µg/ml and 83 pM |
| B2 | 0.018 µg/ml and 118 pM |
| B3 | 0.014 µg/ml and 93 pM |
| B4 | 0.016 µg/ml and 107 pM |
| B5 | 0.022 µg/ml and 147 pM |

These binders were tested against T2, Cynomolgus OSM (assay: cell-based or functional assay).

| Binder | KB cell neutralisation assay, mean IC50 |
| --- | --- |
| B1 | 0.01 µg/ml and 67 pM |
| B2 | 0.012 µg/ml and 49 pM |
| B3 | 0.013 µg/ml and 14 pM |
| B4 | 0.011 µg/ml and 10 pM |
| B5 | 0.016 µg/ml and 58 pM |

These binders were tested against T1, Human OSM (assay: SPR (ProteOn XPR36 or Biacore T100), captured supernatant, OSM as analyte; hatched cell: separate experiment).
Experimental: as §1, §2, §3

| Binder | Kd |
| --- | --- |
| B24 | 1.62 nM |
| B25 | 36.2 nM |
| B26 | 15.6 nM |
| B27 | 6.93 nM |
